Test results: paper PMC7699638

Target: MBP-ROCK2 (full-length ROCK2 with N-terminal MBP tag) (human), O75116
Experiment: SAXS; MBP-ROCK2 alone; 25 mM HEPES pH 7.4, 25 °C, concentration series 0.3–1.1 mg/ml; molecular mass from the scattering extrapolated to zero angle
Details: remark: other sources report otherwise

stoichiometry N: 2
B1: MBP-ROCK2 (full-length ROCK2 with N-terminal MBP tag), O75116 1-1388 (enzyme)
chain: MSRPPPTGKMPGAPETAPGDGAGASRQRKLEALIRDPRSPINVESLLDGLNSLVLDLDFPALRKNKNIDNFLNRYEKIVKKIRGLQMKAEDYDVVKVIGRGAFGEVQLVRHKASQKVYAMKLLSKFEMIKRSDSAFFWEERDIMAFANSPWVVQLFYAFQDDRYLYMVMEYMPGGDLVNLMSNYDVPEKWAKFYTAEVVLALDAIHSMGLIHRDVKPDNMLLDKHGHLKLADFGTCMKMDETGMVHCDTAVGTPDYISPEVLKSQGGDGFYGRECDWWSVGVFLYEMLVGDTPFYADSLVGTYSKIMDHKNSLCFPEDAEISKHAKNLICAFLTDREVRLGRNGVEEIRQHPFFKNDQWHWDNIRETAAPVVPELSSDIDSSNFDDIEDDKGDVETFPIPKAFVGNQLPFIGFTYYRENLLLSDSPSCRETDSIQSRKNEESQEIQKKLYTLEEHLSNEMQAKEELEQKCKSVNTRLEKTAKELEEEITLRKSVESALRQLEREKALLQHKNAEYQRKADHEADKKRNLENDVNSLKDQLEDLKKRNQNSQISTEKVNQLQRQLDETNALLRTESDTAARLRKTQAESSKQIQQLESNNRDLQDKNCLLETAKLKLEKEFINLQSALESERRDRTHGSEIINDLQGRICGLEEDLKNGKILLAKVELEKRQLQERFTDLEKEKSNMEIDMTYQLKVIQQSLEQEEAEHKATKARLADKNKIYESIEEAKSEAMKEMEKKLLEERTLKQKVENLLLEAEKRCSLLDCDLKQSQQKINELLKQKDVLNEDVRNLTLKIEQETQKRCLTQNDLKMQTQQVNTLKMSEKQLKQENNHLMEMKMNLEKQNAELRKERQDADGQMKELQDQLEAEQYFSTLYKTQVRELKEECEEKTKLGKELQQKKQELQDERDSLAAQLEITLTKADSEQLARSIAEEQYSDLEKEKIMKELEIKEMMARHKQELTEKDATIASLEETNRTLTSDVANLANEKEELNNKLKDVQEQLSRLKDEEISAAAIKAQFEKQLLTERTLKTQAVNKLAEIMNRKEPVKRGNDTDVRRKEKENRKLHMELKSEREKLTQQMIKYQKELNEMQAQIAEESQIRIELQMTLDSKDSDIEQLRSQLQALHIGLDSSSIGSGPGDAEADDGFPESRLEGWLSLPVRNNTKKFGWVKKYVIVSSKKILFYDSEQDKEQSNPYMVLDIDKLFHVRPVTQTDVYRADAKEIPRIFQILYANEGESKKEQEFPVEPVGEKSNYICHKGHEFIPTLYHFPTNCEACMKPLWHMFKPPPALECRRCHIKCHKDHMDKKEEIIAPCKVYYDISTAKNLLLLANSTEEQQKWVSRLVKKIPKKPPAPDPFARSSPRTSMKIQQNQSIRRPSRQLAPNKPS
